Source: publication PMC11830286, “Protein identification using Cryo-EM and artificial intelligence guides improved sample purification” (Journal of Structural Biology: X, 2025)

Target: the molecule itself
Assay: cryo-EM structure; single particle analysis of the SEC peak of the nanoparticle preparation purified without glycine or arginine; octahedral symmetry enforced, 2.51 Å; about 0.3 mg/mL, buffer with DDM

B1: dihydrolipoamide succinyltransferase (DLST) (enzyme, E. coli BL21 (DE3), UniProt P0AFG6 1-405, looked up)
chain: MSSVDILVPDLPESVADATVATWHKKPGDAVVRDEVLVEIETDKVVLEVPASADGILDAVLEDEGTTVTSRQILGRLREGNSAGKETSAKSEEKASTPAQRQQASLEEQNNDALSPAIRRLLAEHNLDASAIKGTGVGGRLTREDVEKHLAKAPAKESAPAAAAPAAQPALAARSEKRVPMTRLRKRVAERLLEAKNSTAMLTTFNEVNMKPIMDLRKQYGEAFEKRHGIRLGFMSFYVKAVVEALKRYPEVNASIDGDDVVYHNYFDVSMAVSTPRGLVTPVLRDVDTLGMADIEKKIKELAVKGRDGKLTVEDLTGGNFTITNGGVFGSLMSTPIINPPQSAILGMHAIKDRPMAVNGQVEILPMMYLALSYDHRLIDGRESVGFLVTIKELLEDPTRLLLDV
notes: dihydrolipoamide succinyltransferase (DLST) of E. coli BL21(DE3), UniProt A0A140NDX4; host protein, no construct; the first 170 residues were unresolved in the cryo-EM map and only the catalytic domain was modelled; also called dihydrolipoyllysine-residue succinyltransferase; contaminant nanoparticle; source: endogenous, E. coli BL21(DE3) expression host; co-purified as a contaminant with …
B1 was tested, and the “stoichiometry N” value was 24.
